Laboratory results taken from patent EP2500357A2 (Abbott Laboratories, dated 2012).
Where two headings read alike, the source gives them in different places.

B1: murine anti-hIL-1α mAb 18F4.2C8 (antibody, V domains shown)
VH: EVQLQQSGAELVKPGASVKLSCTASGLNIKDTYMHWLKQRPEQGLEWIGRIDPANGNAKYDPRFLGKATITADTSSNTAYLQLSSLTSEDTAVYYCARGDGNFHFDYWGQGTTLTVSS
VL: DIVMTQSQRFMSTSVGDRVSVTCKASQNVGTNIAWYQQKPGQSPRALIYSASYRYSGVPDRFTGSGSGTDFTLTISNVQSVDLAEYFCQQYTRYPLTFGGGTKLEIKR
B2: hIL-1a/bDVD5a-Ig (bispecific antibody, human IgG1, kappa)
heavy: not shown
light: QIVLTQSPALMSASPGEKVTMTCSASSSVNYMYWYQQKPRSSPKPWIYLTSNLASGVPARFSGSGSGTSYSLTISSMEAEDAATYYCQQWNSNPYTFGGGTKLEMKRTVAAPQIVLTQSPAIMSASPGEKVTITCSASSSVSYMHWFQQKPGASPKLWIYSTSNLASGVPARFSGSGSGTSYSLTVSRMEAEDAATYYCQQRSTYPYTFGGGTKLEIKRTVAAPSVFIFPPSDEQLKSGTASVVCLLNNFYPREAKVQWKVDNALQSGNSQESVTEQDSKDSTYSLSSTLTLSKADYEKHKVYACEVTHQGLSSPVTKSFNRGEC
B3: murine anti-hIL-1α mAb 6H3.1A4.3E11 (antibody, V domains shown)
VH: QVQLQQPGAELVRPGASVKLSCKASGYTFTTYWMNWVKQRPEQGLEWIGRIDPYDSETLYSQKFKDTAILTVDKSSSTAYMQLSSLTSEDSAVYYCARYGFDYWGQGTTLTVSS
VL: QIVLTQSPALMSASPGEKVTMTCSASSSVNYMYWYQQKPRSSPKPWIYLTSNLASGVPARFSGSGSGTSYSLTISSMEAEDAATYYCQQWNSNPYTFGGGTKLEMKR
B4: hIL-1a/bDVD4a-Ig (bispecific antibody, human IgG1, kappa)
heavy: not shown
light: DIVMTQSQRFMSTSVGDRVSVTCKASQNVGTNIAWYQQKPGQSPRALIYSASYRYSGVPDRFTGSGSGTDFTLTISNVQSVDLAEYFCQQYTRYPLTFGGGTKLEIKRTVAAPSVFIFPPETTVTQSPASLSMAIGEKVTIRCITSTDIDVDMNWYQQKPGEPPKLLISQGNTLRPGVPSRFSSSGSGTDFVFIIENMLSEDVADYYCLQSDNLPLTFGAGTKLELKRTVAAPSVFIFPPSDEQLKSGTASVVCLLNNFYPREAKVQWKVDNALQSGNSQESVTEQDSKDSTYSLSSTLTLSKADYEKHKVYACEVTHQGLSSPVTKSFNRGEC
B5: hIL-1a/bDVD6a-Ig (bispecific antibody, human IgG1, kappa)
heavy: not shown
light: QIVLTQSPALMSASPGEKVTMTCSASSSVNYMYWYQQKPRSSPKPWIYLTSNLASGVPARFSGSGSGTSYSLTISSMEAEDAATYYCQQWNSNPYTFGGGTKLEMKRTVAAPSVFIFPPQIVLTQSPAIMSASPGEKVTITCSASSSVSYMHWFQQKPGASPKLWIYSTSNLASGVPARFSGSGSGTSYSLTVSRMEAEDAATYYCQQRSTYPYTFGGGTKLEIKRTVAAPSVFIFPPSDEQLKSGTASVVCLLNNFYPREAKVQWKVDNALQSGNSQESVTEQDSKDSTYSLSSTLTLSKADYEKHKVYACEVTHQGLSSPVTKSFNRGEC
B6: hIL-1a/bDVD6b-Ig (bispecific antibody, human IgG1, kappa)
heavy: not shown
light: QIVLTQSPAIMSASPGEKVTITCSASSSVSYMHWFQQKPGASPKLWIYSTSNLASGVPARFSGSGSGTSYSLTVSRMEAEDAATYYCQQRSTYPYTFGGGTKLEIKRTVAAPSVFIFPPQIVLTQSPALMSASPGEKVTMTCSASSSVNYMYWYQQKPRSSPKPWIYLTSNLASGVPARFSGSGSGTSYSLTISSMEAEDAATYYCQQWNSNPYTFGGGTKLEMKRTVAAPSVFIFPPSDEQLKSGTASVVCLLNNFYPREAKVQWKVDNALQSGNSQESVTEQDSKDSTYSLSSTLTLSKADYEKHKVYACEVTHQGLSSPVTKSFNRGEC
B7: chimeric 3D12.E3 Ab (3D12.E3-VH-hCγ1 / 3D12.E3-VL-hCk) (antibody, V domains shown)
VH: QIQLVQSGPELKKPGETVKISCKASGYTFRNYGMNWVKQAPGKDLKRMAWINTYTGESTYADDFKGRFAFSLETSASTAYLQINNLKNEDTATYFCARGIYYYGSSYAMDYWGQGTSVTVSS
VL: NIQMTQTTSSLSASLGDRVTISCRASQDISNCLNWYQQKPDGTVKLLIYYTSRLHSGVPSRFSGSGSGTDYSLTISNLEQEDIATYFCQQGKTLPYAFGGGTKLEINR
B8: hIL-1a/bDVD3a-Ig (bispecific antibody, human IgG1, kappa)
heavy: not shown
light: DIVMTQSQRFMSTSVGDRVSVTCKASQNVGTNIAWYQQKPGQSPRALIYSASYRYSGVPDRFTGSGSGTDFTLTISNVQSVDLAEYFCQQYTRYPLTFGGGTKLEIKRTVAAPETTVTQSPASLSMAIGEKVTIRCITSTDIDVDMNWYQQKPGEPPKLLISQGNTLRPGVPSRFSSSGSGTDFVFIIENMLSEDVADYYCLQSDNLPLTFGAGTKLELKRTVAAPSVFIFPPSDEQLKSGTASVVCLLNNFYPREAKVQWKVDNALQSGNSQESVTEQDSKDSTYSLSSTLTLSKADYEKHKVYACEVTHQGLSSPVTKSFNRGEC
B9: hIL-1a/bDVD4b-Ig (bispecific antibody, human IgG1, kappa)
heavy: not shown
light: ETTVTQSPASLSMAIGEKVTIRCITSTDIDVDMNWYQQKPGEPPKLLISQGNTLRPGVPSRFSSSGSGTDFVFIIENMLSEDVADYYCLQSDNLPLTFGAGTKLELKRTVAAPSVFIFPPDIVMTQSQRFMSTSVGDRVSVTCKASQNVGTNIAWYQQKPGQSPRALIYSASYRYSGVPDRFTGSGSGTDFTLTISNVQSVDLAEYFCQQYTRYPLTFGGGTKLEIKRTVAAPSVFIFPPSDEQLKSGTASVVCLLNNFYPREAKVQWKVDNALQSGNSQESVTEQDSKDSTYSLSSTLTLSKADYEKHKVYACEVTHQGLSSPVTKSFNRGEC
B10: chimeric 13F5.G5 Ab (13F5.G5-VH-Cγ1 / 13F5.G5-VL-Cκ) (antibody, V domains shown)
VH: QVQLQQSGAELVRPGSSVKISCKASGYAFSSYWMNWVKQRPGQGLEWIGQIYPGDGDTNYNGKFKGKATLTADKSSSTSYMQLSGLTSEDSAMYFCVRFPTGNDYYAMDYWGQGTSVTVSS
VL: NIVLTQSPASLAVSLGQRATISCRASESVDSYGNSYMHWYQQKPGQPPKLLIYLASNLESGVPARFSGSGSRTDFTLTIDPVEADDAATYYCQQNNEDPFTFGSGTKLEIKR
B11: hIL-1a/bDVD3b-Ig (bispecific antibody, human IgG1, kappa)
heavy: not shown
light: ETTVTQSPASLSMAIGEKVTIRCITSTDIDVDMNWYQQKPGEPPKLLISQGNTLRPGVPSRFSSSGSGTDFVFIIENMLSEDVADYYCLQSDNLPLTFGAGTKLELKRTVAAPDIVMTQSQRFMSTSVGDRVSVTCKASQNVGTNIAWYQQKPGQSPRALIYSASYRYSGVPDRFTGSGSGTDFTLTISNVQSVDLAEYFCQQYTRYPLTFGGGTKLEIKRTVAAPSVFIFPPSDEQLKSGTASVVCLLNNFYPREAKVQWKVDNALQSGNSQESVTEQDSKDSTYSLSSTLTLSKADYEKHKVYACEVTHQGLSSPVTKSFNRGEC
B12: hIL-1a/bDVD5b-Ig (bispecific antibody, human IgG1, kappa)
heavy: not shown
light: QIVLTQSPAIMSASPGEKVTITCSASSSVSYMHWFQQKPGASPKLWIYSTSNLASGVPARFSGSGSGTSYSLTVSRMEAEDAATYYCQQRSTYPYTFGGGTKLEIKRTVAAPQIVLTQSPALMSASPGEKVTMTCSASSSVNYMYWYQQKPRSSPKPWIYLTSNLASGVPARFSGSGSGTSYSLTISSMEAEDAATYYCQQWNSNPYTFGGGTKLEMKRTVAAPSVFIFPPSDEQLKSGTASVVCLLNNFYPREAKVQWKVDNALQSGNSQESVTEQDSKDSTYSLSSTLTLSKADYEKHKVYACEVTHQGLSSPVTKSFNRGEC

What was measured:
Assay in all cases: cell-based or functional assay
recombinant human IL-1α [1] = target: T1, recombinant human IL-1α (human, UniProt P01583 113-271)
T1 sequence (looked up): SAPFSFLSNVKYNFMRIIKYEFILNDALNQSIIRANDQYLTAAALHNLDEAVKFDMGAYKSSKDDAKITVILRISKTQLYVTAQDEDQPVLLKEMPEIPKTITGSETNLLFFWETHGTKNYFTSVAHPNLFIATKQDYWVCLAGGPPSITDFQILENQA

recombinant human IL-1α [2] = target: T1, recombinant human IL-1α; remark: listed apart in the source
recombinant human IL-1β [3] = target: T2, recombinant human IL-1β (human, UniProt P01584 117-269)
recombinant human IL-1α [4] = target: T1, recombinant human IL-1α; remark: listed apart in the source
recombinant human IL-1β [5] = target: T2, recombinant human IL-1β; remark: listed apart in the source

Binder	Potency (IC50), MRC-5 bioassay (recombinant human IL-1β [3]) [nM]	Potency (IC50), MRC-5 bioassay (recombinant human IL-1α [2]) [nM]	other results
B1			IC50, inhibition of IL-8 production by MRC-5 cells (recombinant human IL-1α [1]): 0.089 nM; IC50, MRC-5 bioassay (recombinant human IL-1α [2]): 0.33 nM
B2	19	2.6	
B3			IC50, inhibition of IL-8 production by MRC-5 cells (recombinant human IL-1α [1]): 0.24 nM; IC50, MRC-5 bioassay (recombinant human IL-1α [2]): 0.24 nM
B4	10	0.35	
B5	70	2.3	
B6	0.75	1	
B7			Potency (IC50), MRC-5 bioassay (recombinant human IL-1α [4]): 0.7 nM
B8		0.75	
B9	0.5	0.35	
B10			Potency (IC50), MRC-5 bioassay (recombinant human IL-1β [5]): 0.53 nM
B11		0.7	
B12	0.25	3.3	
